Source: patent publication US20210094998A1
Values belong to the substance of their own block, whether it stands above or below them.

Columns and labels:
Assay in all cases: cell-based or functional assay
[1] = biological target: CRHR1
[2] = biological target: CRHR2
[3] = biological target: cynomolgus monkey GLP1 receptor (cynomolgus monkey) (UniProt F8V479)
[4] = biological target: mouse GLP1 receptor (mouse) (UniProt O35659)
[5] = biological target: human GLP1 receptor (human) (UniProt P43220)
Chain of human GLP1 receptor (human) (P43220 24-463): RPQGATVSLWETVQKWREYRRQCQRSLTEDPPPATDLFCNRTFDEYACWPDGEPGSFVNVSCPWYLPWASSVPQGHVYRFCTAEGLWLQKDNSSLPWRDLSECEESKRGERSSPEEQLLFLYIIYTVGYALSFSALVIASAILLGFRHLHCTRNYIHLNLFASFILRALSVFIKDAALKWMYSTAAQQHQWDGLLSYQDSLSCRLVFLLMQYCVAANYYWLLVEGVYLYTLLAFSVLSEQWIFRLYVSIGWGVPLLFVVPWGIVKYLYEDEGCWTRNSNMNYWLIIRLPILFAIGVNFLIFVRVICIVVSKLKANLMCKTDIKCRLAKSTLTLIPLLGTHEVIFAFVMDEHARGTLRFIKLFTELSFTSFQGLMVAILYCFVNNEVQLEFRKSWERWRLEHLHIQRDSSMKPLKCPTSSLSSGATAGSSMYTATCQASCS

[6] = biological target: human glucagon receptor (human) (UniProt P47871)
Chain of human glucagon receptor (human) (P47871 26-477): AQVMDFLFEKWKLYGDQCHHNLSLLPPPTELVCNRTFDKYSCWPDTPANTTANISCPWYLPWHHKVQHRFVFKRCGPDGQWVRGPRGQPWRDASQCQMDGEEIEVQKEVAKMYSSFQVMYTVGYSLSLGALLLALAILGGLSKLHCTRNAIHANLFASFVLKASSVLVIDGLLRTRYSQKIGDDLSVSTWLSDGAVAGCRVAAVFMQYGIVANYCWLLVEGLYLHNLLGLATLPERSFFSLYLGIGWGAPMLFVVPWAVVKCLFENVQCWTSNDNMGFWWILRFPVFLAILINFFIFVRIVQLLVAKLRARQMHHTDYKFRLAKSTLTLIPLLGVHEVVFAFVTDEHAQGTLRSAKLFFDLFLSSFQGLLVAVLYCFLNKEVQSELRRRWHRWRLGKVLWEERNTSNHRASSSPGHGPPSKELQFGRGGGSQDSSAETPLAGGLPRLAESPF

[7] = biological target: rat glucagon receptor (rat) (UniProt P30082)
Chain of rat glucagon receptor (rat) (P30082 27-485): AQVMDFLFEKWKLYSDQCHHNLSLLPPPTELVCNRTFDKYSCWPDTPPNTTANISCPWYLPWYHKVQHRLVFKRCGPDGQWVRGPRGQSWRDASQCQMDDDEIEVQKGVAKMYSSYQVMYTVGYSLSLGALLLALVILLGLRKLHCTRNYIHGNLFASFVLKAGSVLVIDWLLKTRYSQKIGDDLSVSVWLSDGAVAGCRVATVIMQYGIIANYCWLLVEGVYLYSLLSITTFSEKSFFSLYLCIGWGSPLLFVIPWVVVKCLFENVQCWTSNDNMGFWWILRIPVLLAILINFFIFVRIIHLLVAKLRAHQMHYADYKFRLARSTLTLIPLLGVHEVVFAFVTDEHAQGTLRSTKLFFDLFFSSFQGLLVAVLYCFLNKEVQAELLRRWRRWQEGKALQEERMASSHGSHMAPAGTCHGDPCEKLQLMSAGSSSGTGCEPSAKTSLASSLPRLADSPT

[8] = biological target: mouse glucagon receptor (mouse) (UniProt Q61606)
Chain of mouse glucagon receptor (mouse) (Q61606 27-485): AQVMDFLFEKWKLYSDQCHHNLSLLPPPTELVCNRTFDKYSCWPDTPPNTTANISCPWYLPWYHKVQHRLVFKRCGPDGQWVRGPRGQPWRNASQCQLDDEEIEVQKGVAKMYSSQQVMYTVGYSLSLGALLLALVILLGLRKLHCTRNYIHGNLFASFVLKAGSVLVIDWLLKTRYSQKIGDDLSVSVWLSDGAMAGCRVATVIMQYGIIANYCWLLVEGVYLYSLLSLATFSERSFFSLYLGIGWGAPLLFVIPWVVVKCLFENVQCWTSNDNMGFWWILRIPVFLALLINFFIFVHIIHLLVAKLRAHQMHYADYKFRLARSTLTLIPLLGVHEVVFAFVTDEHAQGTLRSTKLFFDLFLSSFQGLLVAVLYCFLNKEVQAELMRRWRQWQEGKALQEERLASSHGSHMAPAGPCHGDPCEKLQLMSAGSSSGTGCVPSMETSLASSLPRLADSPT

[9] = biological target: cynomolgus monkey glucagon receptor (cynomolgus monkey)
[10] = biological target: rhesus monkey Y2 receptor (rhesus monkey) (UniProt Q9GK74)
Chain of rhesus monkey Y2 receptor (rhesus monkey) (Q9GK74 whole entry): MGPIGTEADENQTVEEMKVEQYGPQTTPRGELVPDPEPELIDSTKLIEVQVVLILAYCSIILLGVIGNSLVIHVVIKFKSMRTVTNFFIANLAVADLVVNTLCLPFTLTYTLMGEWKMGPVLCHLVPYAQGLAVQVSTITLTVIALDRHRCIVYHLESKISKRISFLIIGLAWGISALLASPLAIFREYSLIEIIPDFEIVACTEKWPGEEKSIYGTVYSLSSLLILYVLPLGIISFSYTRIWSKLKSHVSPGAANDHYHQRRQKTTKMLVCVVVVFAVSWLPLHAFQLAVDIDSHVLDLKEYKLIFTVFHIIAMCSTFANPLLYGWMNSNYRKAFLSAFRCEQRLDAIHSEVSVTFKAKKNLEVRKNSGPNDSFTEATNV

[11] = biological target: mouse Y2 receptor (mouse) (UniProt P97295)
Chain of mouse Y2 receptor (mouse) (P97295 whole entry): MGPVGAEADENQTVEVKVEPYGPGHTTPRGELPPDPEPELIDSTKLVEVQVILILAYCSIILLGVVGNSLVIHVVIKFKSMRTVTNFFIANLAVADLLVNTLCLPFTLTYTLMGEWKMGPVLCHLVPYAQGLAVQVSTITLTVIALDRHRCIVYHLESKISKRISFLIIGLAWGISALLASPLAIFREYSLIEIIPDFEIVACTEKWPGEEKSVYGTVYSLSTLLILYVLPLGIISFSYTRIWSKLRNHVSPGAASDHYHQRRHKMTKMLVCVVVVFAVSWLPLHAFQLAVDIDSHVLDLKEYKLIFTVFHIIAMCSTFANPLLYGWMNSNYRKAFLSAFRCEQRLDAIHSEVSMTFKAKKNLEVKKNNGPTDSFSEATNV

[12] = biological target: human Y1 receptor (human) (UniProt P25929)
Chain of human Y1 receptor (human) (P25929 whole entry): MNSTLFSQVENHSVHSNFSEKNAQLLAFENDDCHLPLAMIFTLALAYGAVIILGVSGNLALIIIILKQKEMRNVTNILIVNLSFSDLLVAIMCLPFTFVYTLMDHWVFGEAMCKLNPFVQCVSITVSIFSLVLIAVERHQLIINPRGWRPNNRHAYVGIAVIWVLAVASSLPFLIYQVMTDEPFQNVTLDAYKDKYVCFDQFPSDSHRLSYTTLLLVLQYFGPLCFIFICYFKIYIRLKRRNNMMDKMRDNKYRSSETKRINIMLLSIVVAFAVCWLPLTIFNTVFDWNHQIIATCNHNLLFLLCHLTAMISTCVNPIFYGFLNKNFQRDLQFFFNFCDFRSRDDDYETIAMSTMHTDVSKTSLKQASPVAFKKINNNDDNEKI

[13] = biological target: rat Y2 receptor (rat)

Chain of mouse GLP1 receptor (mouse) (O35659 22-463): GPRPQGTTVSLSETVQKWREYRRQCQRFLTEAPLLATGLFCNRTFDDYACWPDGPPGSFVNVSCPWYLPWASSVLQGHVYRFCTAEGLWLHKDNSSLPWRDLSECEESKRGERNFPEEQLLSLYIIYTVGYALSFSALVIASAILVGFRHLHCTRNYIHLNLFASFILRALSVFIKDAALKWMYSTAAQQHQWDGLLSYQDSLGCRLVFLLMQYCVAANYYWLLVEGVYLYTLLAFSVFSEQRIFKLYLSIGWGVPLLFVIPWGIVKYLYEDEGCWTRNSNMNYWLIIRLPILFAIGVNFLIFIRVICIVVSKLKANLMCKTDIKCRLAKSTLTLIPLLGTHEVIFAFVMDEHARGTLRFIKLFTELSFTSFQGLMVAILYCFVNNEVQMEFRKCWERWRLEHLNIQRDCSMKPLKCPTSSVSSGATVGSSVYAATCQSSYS

RC50, cAMP assay [1]: 0.000308 µM
RC50, cAMP assay [2]: 0.0034 µM
Substance: Sauvagine (from UniProt P01144 1-40) (peptide)

Max response, cAMP assay [1]: 106%
Max response, cAMP assay [2]: 107%
Substance: Sauvagine (from UniProt P01144 1-40) (peptide; unit assumed)

EC50, receptor cAMP assay [3]: 0.08 nM
EC50, receptor cAMP assay [4]: 0.06 nM
EC50, receptor cAMP assay [5]: 0.07 nM
EC50, receptor cAMP assay [6]: > 100 nM
EC50, receptor cAMP assay [7]: > 100 nM
EC50, receptor cAMP assay [8]: > 100 nM
EC50, receptor cAMP assay [9]: > 100 nM
Substance: Ser-8 GLP1 (peptide)

EC50, cAMP assay (LANCE) on receptor-expressing cells [10]: 0.06 nM
EC50, cAMP assay (LANCE) on receptor-expressing cells [11]: 0.03 nM
EC50, cAMP assay (LANCE) on receptor-expressing cells [12]: 66.4 nM
EC50, cAMP assay (LANCE) on receptor-expressing cells [13]: 0.5 nM
Substance: PYY3-36 (peptide)
